± gives the uncertainty stated by the source.
B1: DnaJ homolog subfamily C member 2, residues 451 to 503; numbered along this chain, Q99543 (parent)
chain: SKNWSEDDLQLLIKAVNLFPAGTNSRWEVIANYMNIHSSSGVKRTAKDVIGKA

Variants of: B1
Experiment: abundance fitness (aPCA) (normalised: wild type 0, dead -1); higher = more abundant; growth selection in yeast, the domain comes from the species named
Settings: Homo sapiens

Abundance fitness, by site and new letter:
A53: R -0.498 ± 0.32 | G -0.112 ± 0.21 | D -0.08 ± 0.32 | L -0.634 ± 0.24 | P -0.775 ± 0.46 | S -0.001 ± 0.14 | Q -0.081 ± 0.22 | H -0.233 ± 0.25 | T -0.254 ± 0.19 | C -0.188 ± 0.25 | V -0.035 ± 0.29 | Y -0.629 ± 0.45
D48: T -0.563 ± 0.1 | S -0.212 ± 0.067 | Y -1.04 ± 0.19 | W -0.845 ± 0.1 | V -0.759 ± 0.074
G51: M -0.106 ± 0.084 | L -0.159 ± 0.071 | A -0.019 ± 0.065 | P -0.194 ± 0.088 | I -0.176 ± 0.1 | C -0.142 ± 0.091 | Q -0.043 ± 0.11 | D 0.063 ± 0.062 | T -0.065 ± 0.079 | K 0.12 ± 0.11 | F -0.136 ± 0.094 | H -0.206 ± 0.11 | S -0.014 ± 0.057 | E 0.016 ± 0.084 | Y -0.099 ± 0.12 | W -0.064 ± 0.099 | R 0 ± 0.06
K52: R -0.119 ± 0.076 | P -0.077 ± 0.094 | Q -0.012 ± 0.12 | F -0.329 ± 0.11 | M -0.247 ± 0.15 | I -0.094 ± 0.11 | D -0.666 ± 0.11 | A -0.01 ± 0.09 | H -0.126 ± 0.13 | V -0.181 ± 0.087 | W -0.018 ± 0.12 | C -0.033 ± 0.097 | T -0.197 ± 0.09 | S -0.252 ± 0.073 | E -0.006 ± 0.12 | N -0.358 ± 0.12 | G -0.006 ± 0.074 | L -0.385 ± 0.073
V49: F -0.721 ± 0.18 | A -0.219 ± 0.065 | N -0.938 ± 0.15 | L -0.258 ± 0.067 | K -1.02 ± 0.13 | W -0.758 ± 0.11 | S -0.886 ± 0.094 | E -0.897 ± 0.11 | D -0.877 ± 0.15 | H -0.883 ± 0.14 | I -0.069 ± 0.07 | P -1.18 ± 0.14 | Q -0.744 ± 0.16 | C -0.031 ± 0.1 | R -0.888 ± 0.085
I50: P -0.632 ± 0.16 | D -0.224 ± 0.096 | T -0.267 ± 0.089 | N -0.229 ± 0.096 | Y -0.006 ± 0.098 | E 0.095 ± 0.095 | R 0.096 ± 0.06 | L -0.06 ± 0.061 | W -0.085 ± 0.078 | G -0.113 ± 0.07 | C -0.228 ± 0.11 | V 0.03 ± 0.066 | A 0.085 ± 0.081 | H -0.146 ± 0.1
